Three substances from US20190078119A1 can be followed below.

In this assay the target is AAV8 capsid (native AAV8) (AAV8). The experiment in a line: cell-based or functional assay.
In the case of monoclonal antibody ADK8/9, the AAV8 Nab titer (neutralizing antibody titer of the antibody stock) was 2560 titer 1:n.
For monoclonal antibody ADK9, the AAV8 Nab titer (neutralizing antibody titer of the antibody stock) was 5 titer 1:n.
The value for monoclonal neutralizing antibody ADK8 was 2560 titer 1:n.
